Experiment [1] has as its target T1, human EDAR domain III and the stalk domain fused to Fc of human IgG1 (human, UniProt Q9UNE0 115-183, limits assumed).
T1 construct: also called CRD3 and stalk EDAR-Fc truncation protein; not shown: Fc region of human IgG1
T1 sequence: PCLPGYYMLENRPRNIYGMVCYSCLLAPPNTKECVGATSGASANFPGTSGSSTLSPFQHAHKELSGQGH
Nature of the experiment: capture ELISA on EDAR-Fc truncation proteins (FIG. 9). The source says:
(§1) Epitope mapping of anti-EDAR monoclonal antibodies on recombinant human EDAR by ELISA. (A) Schematic linear representation of human EDAR showing the position of cystein residues (thin horizontal lines), of the putative N-linked glycosylation site (thick horizontal line, N), of the six structural modules (rectangles with rounded corners) composing the three cystein-rich domains (CRD1, CRD2, CRD3), of the transmembrane domain (rectangle, TMD), of the signal peptide (Leader), of the stalk and of the intracellular domain (ID). Amino acid numbers at the junctions of interest are indicated. The arrow indicates the predicted cleavage site of the signal peptide. The scheme is drawn to scale, except for the intracellular domain. (B) Wells of ELISA plates were coated with goat anti-human IgG antibody, blocked, and further incubated with human EDAR-Fc, mouse EDAR-Fc or the indicated human EDAR-Fc truncation proteins in cell supernatants of transfected cells. One well was also left without cell supernatant (Ctrl). The efficient capture of the various EDAR-Fc proteins was controlled using horseradish peroxydase-coupled donkey anti-human IgG antibody. Binding of mAbEDARs were monitored with horseradish peroxydase-coupled anti-mouse IgG antibody.
(§2) EDAR is a transmembrane protein whose extracellular part is composed of three membrane distal cystein-rich domains (CRDs) and of a proximal membrane stalk domain (FIG. 9A). Constructs coding for the entire EDAR protein, domains I and II, domains II and III, domain III and the stalk domain, domains I, II and III alone and the stalk domain alone were assembled with the Fc region of human IgG1, inserted into a mammalian expression vector and transiently transfected in 293T cells. […] The other fragments were not recognized, in particular the fragments made up of either domain I or II alone. mAbEDAR5, 6, 12 and 13 specifically recognized domain I, alone or together with domain II. mAbEDAR9, 14 and 15 only recognized Fc constructs containing the entire EDAR extracellular domain.

Experiment [2] concerns the target T2, human EDAR stalk domain alone fused to Fc of human IgG1 (human, limits assumed).
T2 construct: also called stalk EDAR-Fc truncation protein; not shown: Fc region of human IgG1
T2 chain: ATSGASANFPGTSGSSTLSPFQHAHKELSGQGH
Described as above.
Source text: as §1, §2

Experiment [3] concerns the target T3, human EDAR domains II and III fused to Fc of human IgG1 (human, UniProt Q9R187 73-150 (mouse entry), limits assumed).
T3 construct: also called CRD2 and CRD3 EDAR-Fc truncation protein; not shown: Fc region of human IgG1
T3 sequence: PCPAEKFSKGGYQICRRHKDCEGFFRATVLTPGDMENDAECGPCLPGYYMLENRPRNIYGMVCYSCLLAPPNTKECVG
The description is as above.
Source text: as §1, §2

The target in experiment [4] is T4, human EDAR domain III alone fused to Fc of human IgG1 (human, limits assumed).
T4 construct: also called CRD3 EDAR-Fc truncation protein; not shown: Fc region of human IgG1
T4 chain: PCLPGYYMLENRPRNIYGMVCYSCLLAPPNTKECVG
The experiment is described as above.
Source text: as §1, §2

Experiment [5] concerns the target T5, human EDAR domain I alone fused to Fc of human IgG1 (human, UniProt Q9UNE0 27-72).
T5 construct: also called CRD1 EDAR-Fc truncation protein; not shown: Fc region of human IgG1
T5 chain: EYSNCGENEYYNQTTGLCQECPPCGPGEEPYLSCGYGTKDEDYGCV
The description is as above.
Source text: as §1, §2

Experiment [6] addresses T6, human EDAR domain II alone fused to Fc of human IgG1 (human, UniProt Q9R187 73-114 (mouse entry), limits assumed).
T6 construct: also called CRD2 EDAR-Fc truncation protein; not shown: Fc region of human IgG1
T6 chain: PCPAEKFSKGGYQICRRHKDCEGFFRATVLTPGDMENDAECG
The description is as above.
Source text: as §1, §2

Experiment [7] deals with T7, human EDAR domains I and II fused to Fc of human IgG1 (human, UniProt Q9UNE0 27-114).
T7 construct: Tested as supernatant of transfected 293T cells; also called CRD1 and CRD2 EDAR-Fc truncation protein; fragment made up of domains I and II; not shown: Fc region of human IgG1
T7 sequence: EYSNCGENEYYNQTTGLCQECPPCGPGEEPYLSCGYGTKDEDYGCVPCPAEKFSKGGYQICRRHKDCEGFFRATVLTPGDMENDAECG
Description: capture ELISA on EDAR-Fc truncation proteins.
Source text: as §1, §2

For another experiment, the target named is T8, Flag-human APRIL (human, UniProt O75888 110-250, limits assumed).
T8 construct: Control antigen; not shown: Flag tag
T8 sequence (looked up): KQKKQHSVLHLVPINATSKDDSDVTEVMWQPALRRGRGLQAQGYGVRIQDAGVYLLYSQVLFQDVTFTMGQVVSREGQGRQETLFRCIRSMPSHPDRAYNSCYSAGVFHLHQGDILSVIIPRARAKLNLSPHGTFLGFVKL
Nature of the experiment: Western blot (FIG. 7A). The source says:
(§3) FIG. 7. Use of anti-EDAR mAb in Western blotting.
(§4) The weaker signal obtained with mouse EDAR might be explained by the lower amount of mouse EDAR-Fc loaded on the gel. Binding specificity is established by showing that none of the mAbEDARs does bind to Fas-Fc and Flag-human APRIL (while Flag-human APRIL is recognized by an anti-APRIL mAb). […] The band recognized by mAbEDAR5 in the BSA lane is probably due to a cross-contamination of EDAR-Fc in the neighboring lane.
On the technique in general: A western blot detects proteins with antibodies after separation by electrophoresis.

The target of another experiment is T9, human Fas-Fc (human, UniProt P25445 26-170, limits assumed).
T9 construct: Negative control protein; also called hFas-Fc; not shown: Fc portion
T9 sequence (looked up): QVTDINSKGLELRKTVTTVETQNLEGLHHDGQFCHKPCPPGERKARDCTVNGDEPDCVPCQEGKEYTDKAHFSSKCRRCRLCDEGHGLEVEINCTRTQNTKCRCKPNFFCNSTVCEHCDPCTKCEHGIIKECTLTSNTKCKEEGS
Nature of the experiment: Western blot, 20 ng hFas-Fc (FIG. 7B).
Source text: as §4

The target in the next experiment is T10, mouse EDAR-Fc (mouse).
T10 construct: also called mouse EDAR (1-183)-Fc; soluble mouse EDAR-Fc fusion protein
T10 sequence (chain, as listed by the source limits assumed): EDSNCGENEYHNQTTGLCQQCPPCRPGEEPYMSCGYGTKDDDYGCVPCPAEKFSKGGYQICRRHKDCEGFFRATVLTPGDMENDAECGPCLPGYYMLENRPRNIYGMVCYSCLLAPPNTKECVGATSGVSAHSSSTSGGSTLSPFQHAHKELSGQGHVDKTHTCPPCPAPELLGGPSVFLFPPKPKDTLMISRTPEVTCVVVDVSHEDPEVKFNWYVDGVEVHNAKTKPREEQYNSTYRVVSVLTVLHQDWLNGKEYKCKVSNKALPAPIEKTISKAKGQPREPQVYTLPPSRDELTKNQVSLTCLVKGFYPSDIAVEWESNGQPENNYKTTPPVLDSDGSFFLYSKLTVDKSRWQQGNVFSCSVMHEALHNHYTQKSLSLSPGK
Description: ELISA on mouse EDAR-Fc (FIG. 6, 9). The method, then: FIG. 6. Specific binding of the anti-EDAR mAb to both mouse and human EDAR. Graded concentrations of mAbEDAR1-4 or of a control mAb (Aprily 5) were added to wells of a 96-well ELISA plate coated with 100 μl of 1 μg/ml of human EDAR-Fc, mouse EDAR-Fc, human Fas-Fc or Flag-human APRIL. […] The absorbance was measured at 490 nm.
In order to obtain antibodies recognizing both human and mouse EDAR, a feature which would considerably facilitate pre-clinical development of drug candidates, EDAR-deficient mice were immunized with human EDAR. It was then assessed whether monoclonal antibodies generated from these mice indeed recognized EDAR from these two animal species. The wells of microtiter plates were coated with soluble human and mouse EDAR-Fc fusion protein and a negative control protein (human Fas-Fc), blocked and probed with serial dilutions of anti-EDAR monoclonal antibody (mAb) mAbEDAR1, 2, 3 and 4 and a negative control mAb (Aprily 5) (FIG. 6), or with a single dose of mAbEDAR1 to 15 (FIG. 9).
(In general: ELISA stands for enzyme-linked immunosorbent assay.)

In the next experiment the target is T11, human EDAR-Fc (human).
T11 construct: also called hEDAR-Fc; human EDAR (1-183)-Fc
Nature of the experiment: Western blot, non-reducing SDS-PAGE (FIG. 7A).
Source text: as §3, §4

B1: mAbEDAR2 (antibody, IgG1, V domains shown)
VH: QVQLQQPGAELVKPGASVKLSCKASGYTFTSYWMQWVKQRPGQGIEWIGEIDPSDSYTYYNQKFKGKATLTIDKSSSTAYMQLSSLTSEDSAVYYCSRKNYYRGMDYWGQGTSVTVSS
VL: DVLMTQTPLSLPVSLGDQASISCRSSQNIVQSNGNTYLEWYLQKPGQSPKLLIYKVSNRFSGVPDRFSGSGSGTDFTLKISRVEADDLGVYYCFQVSHVPYTFGGGTKLEIKR
notes: Light chain identical to that of mAbEDAR4; also called anti-EDAR mAb mAbEDAR2
B1: the binding result in experiment [1], in experiment [2], in experiment [3], in experiment [4], in [5] and in experiment [6] was “no binding” in each case. The binding result in experiment [7] was “binds”; in the experiment with Flag-human APRIL, “no binding”; with human Fas-Fc, “no binding”; with mouse EDAR-Fc, “binds”; with human EDAR-Fc, “binds”.
